Test results taken from article PMC5113301 (Cell Research, 2016).

Key:
crystal structure = target: the molecule itself; assay: crystal structure
cryo-EM structure = target: the molecule itself; assay: cryo-EM structure

B1: seleno-methionine substituted AcrF3 (anti-CRISPR protein encoded by gene 35 from phage JBD5) (natural protein)
chain: MSNTISDRIVARSVIEAARFIQSWEDADPDSLTEDQVLAAAGFAARLHEGLQATVLQRLVDESNHEEYREFKAWEEALLNADGRVASSPFADWGWWYRIANVMLATASQNVGVTWGSRVHGRLMAIFQDKFKQRYEEQA
modifications: seleno-methionine substituted
stoichiometry N (crystal structure): 2

B2: AcrF3 (as in the PaeCas3-AcrF3 complex) (natural protein, phage JBD5)
chain: MSNTISDRIVARSVIEAARFIQSWEDADPDSLTEDQVLAAAGFAARLHEGLQATVLQRLVDESNHEEYREFKAWEEALLNADGRVASSPFADWGWWYRIANVMLATASQNVGVTWGSRVHGRLMAIFQDKFKQRYEEQA
stoichiometry N (cryo-EM structure): 2
